{
  "source": "paper doi:10.1101/2024.10.13.618061",
  "about": "(bioRxiv, 2024)",
  "target": "the molecule itself",
  "experiment": "negative-staining EM",
  "data": [
    {"protein": "wheat Sr35 (Triticum monococcum; TmSr35) [change]/[change], untagged (receptor) MEIAMGAIGSELPKEGELLIGEITLEKKVRKGIESLITELKLMQAVLSKVSKVPADQLDEGVKIWAGNVKELSYQMEDIVDAFMVRVGDGGESTNPKNRVKKILKKVKKLFKNGKDLHRISAALEEVVLQAKQLAELRQRYEQEMRDTSANTSVDPRMMALYTDVTELVGIEETRDKLINMLTEGDDWSKHPLKTISIVGFGGLGKTTLAKAAYDKIKVQFDCGAFVSVSRNPEMKKVLKDILYGLDKVKYENIHNAARDEKYLIDDIIEFLNDKRYLIVIDDIWNEKAWELIKCAFSKKSPGSRLITTTRNVSVSEACCSSEDDIYRMEPLSNDVSRTLFCKRIFSQEEGCPQELLKVSEEILKKCGGVPLAIITIASLLANKGHIKAKDEWYALLSSIGHGLTKNRSLEQMKKILLFSYYDLPSYLKPCLLYLSIFPEDREIRRARLIWRWISEGFVYSEKQDISLYELGDSYFNELVNRSMIQPIGIDDEGKVKACRVHDMVLDLICSLSSEENFVTILDDPRRKMPNSESKVRRLSIQNSKIDVDTTRMEHMRSVTVFSDNVVGKVLDISRFKVLRVLDLEGCHVSDVGYVGNLLHLRYLGLKGTHVKDLPMEIGKLQFLLTLDLRGTKIEVLPWSVVQLRRLMCLYVDYGMKLPSGIGNLTFLEVLDDLGLSDVDLDFVKELGRLTKLRVLRLDFHGFDQSMGKALEESISNMYKLDSLDVFVNRGLINCLSEHWVPPPRLCRLAFPSKRSWFKTLPSWINPSSLPLLSYLDITLFEVRSEDIQLLGTLPALVYLEIWNYSVFEEAHEVEAPVLSSGAALFPCATECRFIGIGAVPSMFPQGAAPRLKRLWFTFPAKWISSENIGLGMRHLPSLQRVVVDVISEGASREEADEAEAALRAAAEDHPNRPILDIW", "values": [
      {"measurement": "stoichiometry N", "result": 5}
    ]}
  ]
}
